Source: patent publication US20150376252A1 (VAN ANDEL RESEARCH INSTITUTE, published 2015)
Where two headings read alike, the source gives them in different places.

B8: Fz4-YFP-N (full-length human Fz4 with YFP residues 1-158 at the C-terminus) (receptor, UniProt Q9ULV1 37-537, looked up)
chain: FGDEEERRCDPIRISMCQNLGYNVTKMPNLVGHELQTDAELQLTTFTPLIQYGCSSQLQFFLCSVYVPMCTEKINIPIGPCGGMCLSVKRRCEPVLKEFGFAWPESLNCSKFPPQNDHNHMCMEGPGDEEVPLPHKTPIQPGEECHSVGTNSDQYIWVKRSLNCVLKCGYDAGLYSRSAKEFTDIWMAVWASLCFISTAFTVLTFLIDSSRFSYPERPIIFLSMCYNIYSIAYIVRLTVGRERISCDFEEAAEPVLIQEGLKNTGCAIIFLLMYFFGMASSIWWVILTLTWFLAAGLKWGHEAIEMHSSYFHIAAWAIPAVKTIVILIMRLVDADELTGLCYVGNQNLDALTGFVVAPLFTYLVIGTLFIAAGLVALFKIRSNLQKDGTKTDKLERLMVKIGVFSVLYTVPATCVIACYFYEISNWALFRYSADDSNMAVEMLKIFMSLLVGITSGMWIWSAKTLHTWQKCSNRLVNSGKVKREKRGNGWVKPGKGSETVV
notes: whole, on cells; also called YFP-N-tagged Fz4; not shown: YFP-N, residues 1-158 of YFP

Columns and labels:
[1] = target: T1, Fz4-YFP (full-length human Fz4 with yellow fluorescent protein at the C-terminus) (human, UniProt Q9ULV1 37-537); assay: static BRET in transfected COS-1 cells
T1 construct: whole, on cells; also called YFP-tagged Fz4; not shown: YFP
T1 sequence (looked up): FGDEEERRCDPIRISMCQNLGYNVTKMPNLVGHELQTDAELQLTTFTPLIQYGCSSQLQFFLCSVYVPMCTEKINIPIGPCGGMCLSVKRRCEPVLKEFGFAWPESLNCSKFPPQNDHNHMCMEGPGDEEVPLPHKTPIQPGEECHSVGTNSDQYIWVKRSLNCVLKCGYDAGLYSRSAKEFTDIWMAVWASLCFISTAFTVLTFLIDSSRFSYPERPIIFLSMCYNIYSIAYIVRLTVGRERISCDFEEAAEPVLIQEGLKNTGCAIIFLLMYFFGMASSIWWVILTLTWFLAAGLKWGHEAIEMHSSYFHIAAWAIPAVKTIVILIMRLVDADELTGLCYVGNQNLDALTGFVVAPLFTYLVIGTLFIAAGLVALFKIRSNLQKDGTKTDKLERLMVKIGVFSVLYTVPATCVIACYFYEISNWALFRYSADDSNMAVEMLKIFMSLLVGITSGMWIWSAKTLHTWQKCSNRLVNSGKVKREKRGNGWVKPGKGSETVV

[2] = target: T2, Fz4-YFP-C (full-length human Fz4 with YFP residues 159-239 at the C-terminus) (human, UniProt Q9ULV1 37-537); assay: split-YFP BRET assay (FIG. 6D)
T2 construct: whole, on cells; also called YFP-C-tagged Fz4; not shown: YFP-C, residues 159-239 of YFP
T2 sequence (looked up): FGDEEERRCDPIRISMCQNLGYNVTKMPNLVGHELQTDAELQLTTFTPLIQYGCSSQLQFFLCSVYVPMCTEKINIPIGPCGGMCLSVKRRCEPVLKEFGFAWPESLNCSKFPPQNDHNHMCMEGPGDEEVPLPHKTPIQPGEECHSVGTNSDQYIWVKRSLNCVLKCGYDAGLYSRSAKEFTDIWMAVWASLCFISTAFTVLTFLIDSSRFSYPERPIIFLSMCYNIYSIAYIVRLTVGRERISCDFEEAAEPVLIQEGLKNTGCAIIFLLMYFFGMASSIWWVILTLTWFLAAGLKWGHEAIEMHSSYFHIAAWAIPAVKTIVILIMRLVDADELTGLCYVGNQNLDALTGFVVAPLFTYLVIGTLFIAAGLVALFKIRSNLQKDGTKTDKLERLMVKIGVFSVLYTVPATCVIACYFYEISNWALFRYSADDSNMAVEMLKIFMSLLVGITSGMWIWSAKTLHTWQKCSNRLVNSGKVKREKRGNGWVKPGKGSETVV

[3] = target: B8; assay: split-YFP BRET assay (FIG. 6D)
[4] = target: biotinylated MBP-Norrin (human); assay: AlphaScreen luminescence proximity assay
[5] = target: T3, MBP-Norrin (maltose binding protein fused to the N-terminus of human Norrin residues 25-133, wild-type) (human); assay: three-step biolayer interferometry: Lrp6 BP3-4 on MBP-Norrin pre-bound to Fz4-FcH6 sensors
[6] = target: T3, MBP-Norrin (maltose binding protein …); assay: calculated from the homologous competition assay (FIG. 4B, 4C); Kd derived from the same homologous competition
[7] = target: T4, MBP-Norrin K54E/R109E (human); assay: AlphaScreen competition: unlabeled mutant MBP-Norrin against b-DKK1 peptide on H8-Lrp6 BP1-2
T4 construct: MBP tagged mutant purified like the wild-type; also called K54E/R109E double mutant

[8] = target: T5, Tspan12-YFP (human Tspan12 with YFP at the C-terminus) (human, UniProt O95859 1-305); assay: static BRET in transfected COS-1 cells
T5 construct: whole, on cells; also called YFP-tagged Tspan12; not shown: YFP
T5 sequence (looked up): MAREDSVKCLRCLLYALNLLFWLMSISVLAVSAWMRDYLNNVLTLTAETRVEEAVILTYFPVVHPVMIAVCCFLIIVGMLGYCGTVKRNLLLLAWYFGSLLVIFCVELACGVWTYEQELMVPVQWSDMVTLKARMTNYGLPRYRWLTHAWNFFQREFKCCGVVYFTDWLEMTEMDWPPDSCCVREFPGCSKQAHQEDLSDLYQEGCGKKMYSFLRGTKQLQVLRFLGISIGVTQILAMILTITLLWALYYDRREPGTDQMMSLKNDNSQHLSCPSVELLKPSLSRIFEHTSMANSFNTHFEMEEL

[9] = target: T1, Fz4-YFP (full-length human Fz4 with …); assay: static BRET in transfected COS-1 cells; remark: listed apart in the source
[10] = target: biotinylated MBP-Norrin (human); assay: AlphaScreen luminescence proximity assay; remark: listed apart in the source
[11] = target: T3, MBP-Norrin (maltose binding protein …); assay: biolayer interferometry, Fz8-FcH6 on the sensor, MBP-Norrin in solution
[12] = target: biotinylated MBP-Norrin (human); assay: AlphaScreen saturation binding curve; binding avidity of dimer to dimer (FIG. 1E)
[13] = target: T3, MBP-Norrin (maltose binding protein …); assay: biolayer interferometry; binding avidity of dimer to dimer (FIG. 8A)
[14] = target: T6, Fz4-Rlu (full-length human Fz4 with Renilla luciferase at the C-terminus) (human, UniProt Q9ULV1 37-537); assay: saturation BRET in transfected COS-1 cells
T6 construct: whole, on cells; also called Rlu-tagged Fz4; not shown: Renilla luciferase (Rlu)
T6 sequence (looked up): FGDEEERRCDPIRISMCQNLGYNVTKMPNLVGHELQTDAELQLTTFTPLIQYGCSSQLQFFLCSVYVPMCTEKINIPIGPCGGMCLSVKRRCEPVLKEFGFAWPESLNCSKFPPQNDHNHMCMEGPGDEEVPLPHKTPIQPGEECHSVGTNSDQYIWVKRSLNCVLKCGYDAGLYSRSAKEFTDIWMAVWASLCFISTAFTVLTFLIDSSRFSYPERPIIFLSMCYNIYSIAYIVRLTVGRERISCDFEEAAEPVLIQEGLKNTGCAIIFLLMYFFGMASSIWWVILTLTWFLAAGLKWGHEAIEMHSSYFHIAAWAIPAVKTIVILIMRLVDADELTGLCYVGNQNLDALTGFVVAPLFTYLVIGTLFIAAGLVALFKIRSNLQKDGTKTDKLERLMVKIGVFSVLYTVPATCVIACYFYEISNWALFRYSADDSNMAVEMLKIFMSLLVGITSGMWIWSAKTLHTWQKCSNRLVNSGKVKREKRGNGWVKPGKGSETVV

[15] = target: T2, Fz4-YFP-C (full-length human Fz4 with …); assay: split-YFP complementation: fluorescence microscopy, emission spectrum, anisotropy

B1: Tspan12-Rlu (human Tspan12 with Renilla luciferase at the C-terminus) (other, UniProt O95859 1-305, looked up)
chain: MAREDSVKCLRCLLYALNLLFWLMSISVLAVSAWMRDYLNNVLTLTAETRVEEAVILTYFPVVHPVMIAVCCFLIIVGMLGYCGTVKRNLLLLAWYFGSLLVIFCVELACGVWTYEQELMVPVQWSDMVTLKARMTNYGLPRYRWLTHAWNFFQREFKCCGVVYFTDWLEMTEMDWPPDSCCVREFPGCSKQAHQEDLSDLYQEGCGKKMYSFLRGTKQLQVLRFLGISIGVTQILAMILTITLLWALYYDRREPGTDQMMSLKNDNSQHLSCPSVELLKPSLSRIFEHTSMANSFNTHFEMEEL
notes: whole, on cells; also called Rlu-tagged Tspan12; not shown: Renilla luciferase (Rlu)
- binding result [1]: binds
- binding result [2]: binds
- binding result [3]: binds

B2: Lrp6 BP3-4 (Lrp6 extracellular beta-propeller domains 3 and 4) (receptor)
chain: VPEAFLLFSRRADIRRISLETNNNNVAIPLTGVKEASALDFDVTDNRIYWTDISLKTISRAFMNGSALEHVVEFGLDYPEGMAVDWLGKNLYWADTGTNRIEVSKLDGQHRQVLVWKDLDSPRALALDPAEGFMYWTEWGGKPKIDRAAMDGSERTTLVPNVGRANGLTIDYAKRRLYWTDLDTNLIESSNMLGLNREVIADDLPHPFGLTQYQDYIYWTDWSRRSIERANKTSGQNRTIIQGHLDYVMDILVFHSSRQSGWNECASSNGHCSHLCLAVPVGGFVCGCPAHYSLNADNRTCSAPTTFLLFSQKSAINRMVIDEQQSPDIILPIHSLRNVRAIDYDPLDKQLYWIDSRQNMIRKAQEDGSQGFTVVVSSVPSQNLEIQPYDLSIDIYSRYIYWTCEATNVINVTRLDGRSVGVVLKGEQDRPRAVVVNPEKGYMYFTNLQERSPKIERAALDGTEREVLFFSGLSKPIALALDSRLGKLFWADSDLRRIESSDLSGANRIVLEDSNILQPVGLTVFENWLYWIDKQQQMIEKIDMTGREGRTKVQARIAQLSDIHAVKELNLQEYRQHPCAQDNGGCSHICLVKGDGTTRCSCPMHLVLLQDELSCG
notes: domain: β-propeller domains 3-4 (BP3-4); not shown: His8 tag (His8 tagged Lrp6 ECD proteins)
- binding result [4]: no binding
- binding result [5]: no binding (tested: 40 µg/ml)

B3: His8-tagged Lrp6 BP1-2 (Lrp6 extracellular beta-propeller domains 1 and 2) (receptor, UniProt O75581 20-631, looked up)
chain: APLLLYANRRDLRLVDATNGKENATIVVGGLEDAAAVDFVFSHGLIYWSDVSEEAIKRTEFNKTESVQNVVVSGLLSPDGLACDWLGEKLYWTDSETNRIEVSNLDGSLRKVLFWQELDQPRAIALDPSSGFMYWTDWGEVPKIERAGMDGSSRFIIINSEIYWPNGLTLDYEEQKLYWADAKLNFIHKSNLDGTNRQAVVKGSLPHPFALTLFEDILYWTDWSTHSILACNKYTGEGLREIHSDIFSPMDIHAFSQQRQPNATNPCGIDNGGCSHLCLMSPVKPFYQCACPTGVKLLENGKTCKDGATELLLLARRTDLRRISLDTPDFTDIVLQLEDIRHAIAIDYDPVEGYIYWTDDEVRAIRRSFIDGSGSQFVVTAQIAHPDGIAVDWVARNLYWTDTGTDRIEVTRLNGTMRKILISEDLEEPRAIVLDPMVGYMYWTDWGEIPKIERAALDGSDRVVLVNTSLGWPNGLALDYDEGKIYWGDAKTDKIEVMNTDGTGRRVLVEDKIPHIFGFTLLGDYVYWTDWQRRSIERVHKRSAEREVIIDQLPDLMGLKATNVHRVIGSNPCAEENGGCSHLCLYRPQGLRCACPIGFELISDMKTCIVPE
notes: domain: β-propeller domains 1-2 (BP1-2); for the separate Fc constructs BP1 is 20-325 and BP2 is 325-631; also called H8-Lrp6 BP1-2; not shown: His8 tag (eight histidines)
- Kd [6]: ~450 nM
- binding result [7]: no binding (tested: 1.805 µM)

B4: Soluble-Rlu (enzyme)
chain: MTSKVYDPEQRKRMITGPQWWARCKQMNVLDSFINYYDSEKHAENAVIFLHGNAASSYLWRHVVPHIEPVARCIIPDLIGMGKSGKSGNGSYRLLDHYKYLTAWFELLNLPKKIIFVGHDWGACLAFHYSYEHQDKIKAIVHAESVVDVIESWDEWPDIEEDIALIKSEEGEKMVLENNFFVETMLPSKIMRKLEPEEFAAYLEPFKEKGEVRRPTLSWPREIPLVKGGKPDVVQIVRNYNAYLRASDDLPKMFIESDPGFFSNAIVEGAKKFPNTEFVKVKGLHFSQEDAPDEMGKYIKSFVERVLKNEQ
- binding result [8]: no binding
- binding result [9]: no binding

B5: Fz8-FcH6 (Frizzled 8 CRD, residues 28-155, fused to Fc and His6 tags) (Fc fusion)
chain: ASAKELACQEITVPLCKGIGYNYTYMPNQFNHDTQDEAGLEVHQFWPLVEIQCSPDLKFFLCSMYTPICLEDYKKPLPPCRSVCERAKAGCAPLMRQYGFAWPDRMRCDRLPEQGNPDTLCMDYNRTD
notes: range 28-155; also called Fz8 CRD; not shown: Fc tag of the pHL-IgL-FcH6 vector; His6 tag (six histidines)
- binding result [10]: no binding
- binding result [11]: no binding

B6: Fz4-FcH6 (human Frizzled 4 CRD, residues 40-164, fused to Fc and His6 tags) (Fc fusion)
chain: EEERRCDPIRISMCQNLGYNVTKMPNLVGHELQTDAELQLTTFTPLIQYGCSSQLQFFLCSVYVPMCTEKINIPIGPCGGMCLSVKRRCEPVLKEFGFAWPESLNCSKFPPQNDHNHMCMEGPGD
notes: range 40-164; also called Fz4 CRD-FcH6; Fz4-FcH6 dimer; not shown: Fc tag of the pHL-IgL-FcH6 vector; His6 tag (six histidines)
- Kd [12]: ~11 nM
- Kd [13]: ~5 nM

B7: CCK2R-YFP (receptor, UniProt P32239 1-447, looked up)
chain: MELLKLNRSVQGTGPGPGASLCRPGAPLLNSSSVGNLSCEPPRIRGAGTRELELAIRITLYAVIFLMSVGGNMLIIVVLGLSRRLRTVTNAFLLSLAVSDLLLAVACMPFTLLPNLMGTFIFGTVICKAVSYLMGVSVSVSTLSLVAIALERYSAICRPLQARVWQTRSHAARVIVATWLLSGLLMVPYPVYTVVQPVGPRVLQCVHRWPSARVRQTWSVLLLLLLFFIPGVVMAVAYGLISRELYLGLRFDGDSDSDSQSRVRNQGGLPGAVHQNGRCRPETGAVGEDSDGCYVQLPRSRPALELTALTAPGPGSGSRPTQAKLLAKKRVVRMLLVIVVLFFLCWLPVYSANTWRAFDGPGAHRALSGAPISFIHLLSYASACVNPLVYCFMHRRFRQACLETCARCCPRPPRARPRALPDEDPPTPSIASLSRLSYTTISTLGPG
notes: whole, on cells; Negative control of the saturation BRET; also called CCK2R-YFP, an unrelated seven-transmembrane receptor; not shown: YFP
- binding result [14]: no binding (tested: YFP/Rlu about 33 (ratio))

Binder: B8
- binding result [15]: binds
